Consider seven molecules from PMC5925814, “Impact of altered phosphorylation on loss of function of juvenile Parkinsonism–associated genetic variants of the E3 ligase parkin” (The Journal of Biological Chemistry, 2018).

For test [1], the target named is T1, GST-tagged Pediculus humanus PINK1 (residues 128–575) (Pediculus humanus) (UniProt E0W1I1).
T1 sequence: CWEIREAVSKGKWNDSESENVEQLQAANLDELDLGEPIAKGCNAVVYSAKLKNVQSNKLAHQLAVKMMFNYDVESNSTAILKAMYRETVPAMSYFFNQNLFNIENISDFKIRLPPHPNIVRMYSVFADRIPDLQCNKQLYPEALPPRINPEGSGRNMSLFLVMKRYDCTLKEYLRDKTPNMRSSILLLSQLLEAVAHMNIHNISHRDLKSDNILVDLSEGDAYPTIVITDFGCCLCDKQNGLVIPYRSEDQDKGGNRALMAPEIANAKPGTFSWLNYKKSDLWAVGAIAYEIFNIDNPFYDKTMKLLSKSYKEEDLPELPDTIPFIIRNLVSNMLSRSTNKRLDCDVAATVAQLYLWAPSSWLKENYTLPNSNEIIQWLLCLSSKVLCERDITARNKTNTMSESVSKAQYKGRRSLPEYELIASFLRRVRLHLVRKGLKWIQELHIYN

In test [2] the target is T1, GST-tagged Pediculus humanus PINK1 (residues 128–575) (Pediculus humanus). This is another data set of the same source.
Test [3] has as its target T2, C-terminal portion of ataxin-3 (residues 194–361) containing three UIM regions (UniProt P54252 194-361).
T2 construct: Unlabelled in the NMR titrations; also called ataxin^194–361; tandem UIM region from ataxin-3; source: E. coli BL21(DE3), purified (Ni-NTA, TEV cleavage, second Ni-NTA)
Briefly: NMR titration; unlabelled ataxin^194–361 titrated into 15N-labelled Ubl variants, 1H-15N HSQC chemical shift changes, global fit for a single Kd (apparent); 150 uM Ubl domain (75 uM pUbl^P37L); 25 mM HEPES, 100 mM NaCl, 0.5 mM TCEP, pH 7.0, 25 °C. The conditions noted are these: both partners purified.

Residue numbers refer to the chain shown, from its start. Names and notes keep the numbering of the source.

T2 sequence (P54252 194-361): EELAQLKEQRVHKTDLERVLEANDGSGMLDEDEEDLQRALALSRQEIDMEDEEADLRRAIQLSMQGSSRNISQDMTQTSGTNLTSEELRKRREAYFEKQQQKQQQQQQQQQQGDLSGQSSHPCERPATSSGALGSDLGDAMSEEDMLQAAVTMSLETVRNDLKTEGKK

“full-length parkin (1–465) G12R (from UniProt O60260 1-465) (enzyme)”: in test [1], the rate of Ser-65 phosphorylation by PINK1 (time course, pSer-65 antibody Western blot), against WT full-length parkin stood at 40%.
Consider “parkin Ubl domain (1–76) I44A (from UniProt O60260 1-76) (domain or fragment)”, for which the phosphorylation by PINK1 against the WT Ubl domain (data not shown) in test [2] was 20 fold.

B1: parkin Ubl domain (1–76), wild type (domain or fragment, human, UniProt O60260 1-76, looked up)
chain: MIVFVRFNSSHGFPVEVDSDTSIFQLKEVVAKRQGVPADQLRVIFAGKELRNDWTVQNCDLDQQSIVHIVQRPWRK
notes: parkin, human, ubiquitin-like (Ubl) domain, residues 1-76; 15N-labelled for the NMR titrations; also called WT Ubl domain; source: E. coli BL21(DE3), purified (Ni-NTA, Ulp1 cleavage, Superdex75)
Take B1: the Kd in test [3] stood at 187 ± 19 µM.

B2: parkin Ser-65–phosphorylated Ubl domain (1–76) (domain or fragment, human, UniProt O60260 1-76, looked up)
chain: B1 chain
modifications: phosphoserine at 65
notes: parkin, human, ubiquitin-like (Ubl) domain, residues 1-76, phosphorylated at Ser-65; 15N-labelled for the NMR titrations; the preparative phosphorylation is not described; also called pUbl; pSer-65 Ubl; source: E. coli BL21(DE3), purified (Ni-NTA, Ulp1 cleavage, Superdex75); phosphorylated at Ser-65
For the molecule B2, the Kd in test [3] was 652 ± 175 µM.

B3: parkin Ser-65–phosphorylated Ubl domain (1–76) P37L (domain or fragment, human, UniProt O60260 1-76, looked up)
chain: B1 chain with P37L
modifications: phosphoserine at 65
notes: parkin, human, ubiquitin-like (Ubl) domain, residues 1-76, ARJP substitution P37L, phosphorylated at Ser-65; 15N-labelled; used at 75 uM in the NMR titration; also called pUbl^P37L; pP37L; source: E. coli BL21(DE3), purified (Ni-NTA, Ulp1 cleavage, Superdex75); phosphorylated at Ser-65
For B3, in test [3], the Kd was 231 ± 72 µM.

B4: parkin Ubl domain (1–76) S65E, phosphomimetic (domain or fragment, human, UniProt O60260 1-76, looked up)
chain: B1 chain with S65E
notes: parkin, human, ubiquitin-like (Ubl) domain, residues 1-76, S65E; 15N-labelled for the NMR titrations; also called Ubl^S65E; source: E. coli BL21(DE3), purified (Ni-NTA, Ulp1 cleavage, Superdex75)
Turning to B4, in test [3], the Kd was 227 ± 26 µM.

B5: parkin Ubl domain (1–76) P37L (domain or fragment, human, UniProt O60260 1-76, looked up)
chain: B1 chain with P37L
notes: parkin, human, ubiquitin-like (Ubl) domain, residues 1-76, ARJP substitution P37L; 15N-labelled for the NMR titrations; Disease-associated (ARJP) substitution; also called Ubl^P37L; source: E. coli BL21(DE3), purified (Ni-NTA, Ulp1 cleavage, Superdex75)
Turning to B5, the Kd in test [3] was found to be 61 ± 2 µM.
